# Assay results: paper PMC11842806, “Molecular basis of foreign DNA recognition by BREX anti-phage immunity system” (Nature Communications, 2025)
# T1: BrxX:Ocr (BrxX2:Ocr2) (Escherichia coli, UniProt P0DUF9)
# T1 construct: gene pglX; full-length BrxX with N-terminal His6 kept plus T7 Ocr with N-His-TEV kept; both expressed in E. coli BW25113; BrxX2:Ocr2 complex; with Protein Ocr (Escherichia phage T7)
# T1 sequence (P0DUF9 1-1205): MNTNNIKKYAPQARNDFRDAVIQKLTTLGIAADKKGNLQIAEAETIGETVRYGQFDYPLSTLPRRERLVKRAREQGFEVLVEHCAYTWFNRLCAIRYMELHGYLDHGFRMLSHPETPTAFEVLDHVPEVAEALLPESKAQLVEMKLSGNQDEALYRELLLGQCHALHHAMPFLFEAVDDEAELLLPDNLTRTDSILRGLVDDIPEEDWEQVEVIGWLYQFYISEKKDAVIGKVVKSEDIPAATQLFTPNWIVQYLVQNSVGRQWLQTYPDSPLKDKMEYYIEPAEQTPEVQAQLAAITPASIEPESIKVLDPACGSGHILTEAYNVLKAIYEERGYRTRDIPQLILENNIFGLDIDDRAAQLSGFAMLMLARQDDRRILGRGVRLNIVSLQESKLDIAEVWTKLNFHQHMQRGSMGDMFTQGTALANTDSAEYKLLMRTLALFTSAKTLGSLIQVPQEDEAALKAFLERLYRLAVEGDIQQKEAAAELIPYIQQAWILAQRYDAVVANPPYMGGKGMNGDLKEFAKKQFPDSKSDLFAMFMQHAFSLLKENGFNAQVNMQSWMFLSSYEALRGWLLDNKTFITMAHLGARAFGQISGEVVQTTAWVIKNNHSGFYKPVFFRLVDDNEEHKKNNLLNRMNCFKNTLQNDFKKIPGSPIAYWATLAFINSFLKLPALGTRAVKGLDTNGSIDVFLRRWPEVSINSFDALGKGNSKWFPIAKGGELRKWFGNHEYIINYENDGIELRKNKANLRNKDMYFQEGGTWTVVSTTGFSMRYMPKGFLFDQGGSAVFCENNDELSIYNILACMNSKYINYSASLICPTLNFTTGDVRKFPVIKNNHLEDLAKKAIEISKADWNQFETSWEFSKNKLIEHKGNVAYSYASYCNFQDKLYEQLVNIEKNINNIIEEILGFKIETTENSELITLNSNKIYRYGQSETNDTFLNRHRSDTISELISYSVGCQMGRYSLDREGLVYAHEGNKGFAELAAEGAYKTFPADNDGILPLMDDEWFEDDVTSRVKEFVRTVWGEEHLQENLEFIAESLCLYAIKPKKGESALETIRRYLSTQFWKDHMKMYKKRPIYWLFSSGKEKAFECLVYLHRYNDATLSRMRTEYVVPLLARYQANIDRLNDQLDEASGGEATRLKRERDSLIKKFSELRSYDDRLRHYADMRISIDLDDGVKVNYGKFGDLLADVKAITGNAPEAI
# T1 sequence (P03775 1-117 partner): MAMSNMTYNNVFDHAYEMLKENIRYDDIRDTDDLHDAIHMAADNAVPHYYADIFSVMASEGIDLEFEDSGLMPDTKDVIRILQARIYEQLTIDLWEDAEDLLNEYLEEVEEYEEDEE
# T2: BrxX (PglX) (Escherichia coli HS, UniProt P0DUF9 1-1205)
# T2 sequence: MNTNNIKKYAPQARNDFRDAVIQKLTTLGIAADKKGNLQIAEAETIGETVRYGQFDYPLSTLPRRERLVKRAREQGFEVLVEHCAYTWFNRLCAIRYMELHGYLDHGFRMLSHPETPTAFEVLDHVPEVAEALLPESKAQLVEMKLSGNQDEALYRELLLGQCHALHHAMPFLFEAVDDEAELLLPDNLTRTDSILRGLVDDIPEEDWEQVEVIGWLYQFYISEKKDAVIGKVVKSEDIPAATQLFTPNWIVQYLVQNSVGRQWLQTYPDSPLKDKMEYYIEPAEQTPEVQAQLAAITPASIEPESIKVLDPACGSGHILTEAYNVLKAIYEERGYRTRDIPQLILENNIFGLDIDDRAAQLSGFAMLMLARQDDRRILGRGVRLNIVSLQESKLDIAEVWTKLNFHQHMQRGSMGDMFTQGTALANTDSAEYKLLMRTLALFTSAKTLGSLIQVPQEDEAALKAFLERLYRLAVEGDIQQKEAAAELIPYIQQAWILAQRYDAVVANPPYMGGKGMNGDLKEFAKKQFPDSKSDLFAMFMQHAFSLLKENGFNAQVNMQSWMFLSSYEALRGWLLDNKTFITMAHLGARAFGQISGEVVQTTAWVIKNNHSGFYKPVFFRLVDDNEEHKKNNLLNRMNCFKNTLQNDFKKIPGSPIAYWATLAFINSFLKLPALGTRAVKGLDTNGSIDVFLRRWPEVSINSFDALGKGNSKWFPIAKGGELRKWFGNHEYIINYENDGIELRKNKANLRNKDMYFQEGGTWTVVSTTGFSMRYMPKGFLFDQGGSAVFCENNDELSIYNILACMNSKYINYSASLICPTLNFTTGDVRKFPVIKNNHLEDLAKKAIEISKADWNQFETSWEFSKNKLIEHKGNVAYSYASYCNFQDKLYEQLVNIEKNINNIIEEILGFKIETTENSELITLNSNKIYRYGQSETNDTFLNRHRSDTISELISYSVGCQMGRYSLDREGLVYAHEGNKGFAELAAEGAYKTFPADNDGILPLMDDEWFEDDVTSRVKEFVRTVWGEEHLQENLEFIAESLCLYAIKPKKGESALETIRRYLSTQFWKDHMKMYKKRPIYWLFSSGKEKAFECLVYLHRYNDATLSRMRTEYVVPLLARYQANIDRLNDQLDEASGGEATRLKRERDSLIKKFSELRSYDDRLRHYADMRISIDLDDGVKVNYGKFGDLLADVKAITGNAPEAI
# T3: BrxA (Escherichia coli HS, UniProt P0DUF6 1-213)
# T3 sequence: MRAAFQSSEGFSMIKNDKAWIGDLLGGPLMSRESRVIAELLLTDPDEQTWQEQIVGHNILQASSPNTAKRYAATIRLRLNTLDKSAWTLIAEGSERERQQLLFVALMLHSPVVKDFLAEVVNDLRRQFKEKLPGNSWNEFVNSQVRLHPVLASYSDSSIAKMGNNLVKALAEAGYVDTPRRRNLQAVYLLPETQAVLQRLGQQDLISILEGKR
# How the values were obtained:
# [1] = target: T1, BrxX:Ocr (BrxX2:Ocr2); assay: cryoEM structure ([…] A); type: binding; details: Ocr bound, no DNA, Mg2+, CHAPSO, pH 7.5; site: methyltransferase domain pocket; SAM modelled from the DNA-bound structure
# [2] = target: T2, BrxX (PglX); assay: BLI; 1:1 fit, stimulated by SAM; Kd only in figure; EMSA: 20 nM Cy5-DNA, 0.5x TBE pH 8.0, 35 mM NaCl, 5% glycerol, +/-0.5 mM SAM or SAH, 30 min, room temperature; BLI: 20 mM Tris-HCl pH 8.0, 100 mM NaCl, 0.05 mg/mL BSA, 0.02% Tween-20, +/-0.5 mM SAM, 30 C; details: protein: recombinant; tags: N-His6; label: 5'-biotin on strand 1; blunt
# [3] = target: T3, BrxA; assay: EMSA; EMSA: 20 nM Cy5-DNA, 0.5x TBE pH 8.0, 35 mM NaCl, 5% glycerol, +/-0.5 mM SAM or SAH, 30 min, room temperature; BLI: 20 mM Tris-HCl pH 8.0, 100 mM NaCl, 0.05 mg/mL BSA, 0.02% Tween-20, +/-0.5 mM SAM, 30 C; details: protein: recombinant; tags: N-His6; label: 5'-Cy5 on strand 1; blunt
# [4] = target: T2, BrxX (PglX); assay: EMSA; 0.5 mM SAM; EMSA: 20 nM Cy5-DNA, 0.5x TBE pH 8.0, 35 mM NaCl, 5% glycerol, +/-0.5 mM SAM or SAH, 30 min, room temperature; BLI: 20 mM Tris-HCl pH 8.0, 100 mM NaCl, 0.05 mg/mL BSA, 0.02% Tween-20, +/-0.5 mM SAM, 30 C; details: protein: recombinant; tags: N-His6; label: 5'-Cy5 on strand 1; blunt
# [5] = target: T2, BrxX (PglX); assay: EMSA; no cofactor; EMSA: 20 nM Cy5-DNA, 0.5x TBE pH 8.0, 35 mM NaCl, 5% glycerol, +/-0.5 mM SAM or SAH, 30 min, room temperature; BLI: 20 mM Tris-HCl pH 8.0, 100 mM NaCl, 0.05 mg/mL BSA, 0.02% Tween-20, +/-0.5 mM SAM, 30 C; details: protein: recombinant; tags: N-His6; label: 5'-Cy5 on strand 1; blunt
# [6] = target: T2, BrxX (PglX); assay: cryoEM structure (2.2 A); SAM, metal modelled as Mg2+; EMSA: 20 nM Cy5-DNA, 0.5x TBE pH 8.0, 35 mM NaCl, 5% glycerol, +/-0.5 mM SAM or SAH, 30 min, room temperature; BLI: 20 mM Tris-HCl pH 8.0, 100 mM NaCl, 0.05 mg/mL BSA, 0.02% Tween-20, +/-0.5 mM SAM, 30 C; details: protein: recombinant; tags: N-His6; blunt
# [7] = target: T2, BrxX (PglX); assay: BLI; SAM; heterogeneous binding, no accurate Kd; EMSA: 20 nM Cy5-DNA, 0.5x TBE pH 8.0, 35 mM NaCl, 5% glycerol, +/-0.5 mM SAM or SAH, 30 min, room temperature; BLI: 20 mM Tris-HCl pH 8.0, 100 mM NaCl, 0.05 mg/mL BSA, 0.02% Tween-20, +/-0.5 mM SAM, 30 C; details: protein: recombinant; tags: N-His6; label: 5'-biotin on strand 1; blunt
# [8] = target: T2, BrxX (PglX); assay: EMSA; non-methylated partner of N9; no cofactor, SAM or SAH; EMSA: 20 nM Cy5-DNA, 0.5x TBE pH 8.0, 35 mM NaCl, 5% glycerol, +/-0.5 mM SAM or SAH, 30 min, room temperature; BLI: 20 mM Tris-HCl pH 8.0, 100 mM NaCl, 0.05 mg/mL BSA, 0.02% Tween-20, +/-0.5 mM SAM, 30 C; details: protein: recombinant; tags: N-His6; label: 5'-Cy5 on strand 1; blunt
# [9] = target: T2, BrxX (PglX); assay: EMSA; improved binding; with and without 0.5 mM SAM; EMSA: 20 nM Cy5-DNA, 0.5x TBE pH 8.0, 35 mM NaCl, 5% glycerol, +/-0.5 mM SAM or SAH, 30 min, room temperature; BLI: 20 mM Tris-HCl pH 8.0, 100 mM NaCl, 0.05 mg/mL BSA, 0.02% Tween-20, +/-0.5 mM SAM, 30 C; details: protein: recombinant; tags: N-His6; label: 5'-Cy5 on strand 1; blunt
molecule,measurement,setting,value
C[S+](CC[C@H](N)C(=O)O)C[C@H]1O[C@@H](n2cnc3c(N)ncnc32)[C@H](O)[C@@H]1O (some centres unmarked) [S-adenosyl methionine],cryoEM structure (2.8 A),[1],The MTD displayed density for a molecule of SAM
"20 bp BREX, biotin (dsDNA) DNA 1: AGTCAGTGGTAAGGTCAGGA DNA 2: TCCTGACCTTACCACTGACT",binding result,[2],binds
"43 bp, 1 BREX site (dsDNA) DNA 1: AGTCAGTGGTAAGGTCAGGAATGAGTCAGTTGGCAAGTCAGGA DNA 2: TCCTGACTTGCCAACTGACTCATTCCTGACCTTACCACTGACT",binding result,[3],binds
same,Kd,[4],~60 nM
same,Kd,[5],~300 nM
"43 bp, 2 BREX sites head-to-tail (H2T) (dsDNA) DNA 1: AGTCAGTGGTAAGGTCAGGAATGAGTCAGTGGTAAGGTCAGGA DNA 2: TCCTGACCTTACCACTGACTCATTCCTGACCTTACCACTGACT",binding result,[6],binds
"40 bp BREX, biotin (dsDNA) DNA 1: TCAGTAGTCAAGTCAGTGGTAAGGTCAGGACAGGAGTCAG DNA 2: CTGACTCCTGTCCTGACCTTACCACTGACTTGACTACTGA",binding result,[7],binds
40 bp BREX (dsDNA) DNA 1: TCAGTAGTCAAGTCAGTGGTAAGGTCAGGACAGGAGTCAG DNA 2: CTGACTCCTGTCCTGACCTTACCACTGACTTGACTACTGA,binding result,[8],binds
50 bp BREX (dsDNA) DNA 1: AGTCATCAGTAGTCAAGTCAGTGGTAAGGTCAGGACAGGAGTCAGCAGGA DNA 2: TCCTGCTGACTCCTGTCCTGACCTTACCACTGACTTGACTACTGATGACT,binding result,[9],binds
43 bp scrambled (dsDNA) DNA 1: AGTCAGTAGTGAGGTCAGGAATGAGTCAGTCTCACTGTCAGGA DNA 2: TCCTGACAGTGAGACTGACTCATTCCTGACCTCACTACTGACT,binding result,[3],binds
same,Kd,[4],~300 nM
